# Experimental data from US9499823B2, “Constructs expressing chimeric receptors and use thereof for the controlled activation of defence response to pathogens in plants” (priority 2009, dated 2016).
# “Also recorded” adds a separate entry of the source.
# B1: WEG: chimeric receptor: WAK1 ectodomain fused to the TM-iJM-kinase portion of EFR, GFP-fused (protein)
# chain: QHQPGENCQNKCGNITIEYPFGISSGCYYPGNESFSITCKEDRPHVLSDIEVANFNHSGQLQVLLNRSSTCYDEQGKKTEEDSSFTLENLSLSANNKLTAVGCNALSLLDTFGMQNYSTACLSLCDSPPEADGECNGRGCCRVDVSAPLDSYTFETTSGRIKHMTSFHDFSPCTYAFLVEDDKFNFSSTEDLLNLRNVMRFPVLLDWSVGNQTCEQVGSTSICGGNSTCLDSTPRNGYICRCNEGFDGNPYLSAGCQDVNECTTSSTIHRHNCSDPKTCRNKVGGFYCKCQSGYRLDTTTMSCKRKEVVSGICIGIASLLLIIIVASLCWFMKRKKKNNASDGNPSDSTTLGMFHEKVSYEELHSATSRFSSTNLIGSGNFGNVFKGLLGPENKLVAVKVLNLLKHGATKSFMAECETFKGIRHRNLVKLITVCSSLDSEGNDFRALVYEFMPKGSLDMWLQLEDLERVNDHSRSLTPAEKLNIAIDVASALEYLHVHCHDPVAHCDIKPSNILLDDDLTAHVSDFGLAQLLYKYDRESFLNQFSSAGVRGTIGYAAPEYGMGGQPSIQGDVYSFGILLLEMFSGKKPTDESFAGDYNLHSYTKSILSGCTSSGGSNAIDEGLRLVLQVGIKCSEEYPRDRMRTDEAVRELISIRSKFFSSKTTITESPRDAPQSSPQEWMLNTDMHTM
# modifications: left off: large carriers
# B2: EFR: Arabidopsis LRR receptor kinase Elongation Factor Tu Receptor (AT5G20480); GFP-fused control (protein)
# chain: RFSNETDMQALLEFKSQVSENNKREVLASWNHSSPFCNWIGVTCGRRRERVISLNLGGFKLTGVISPSIGNLSFLRLLNLADNSFGSTIPQKVGRLFRLQYLNMSYNLLEGRIPSSLSNCSRLSTVDLSSNHLGHGVPSELGSLSKLAILDLSKNNLTGNFPASLGNLTSLQKLDFAYNQMRGEIPDEVARLTQMVFFQIALNSFSGGFPPALYNISSLESLSLADNSFSGNLRADFGYLLPNLRRLLLGTNQFTGAIPKTLANISSLERFDISSNYLSGSIPLSFGKLRNLWWLGIRNNSLGNNSSSGLEFIGAVANCTQLEYLDVGYNRLGGELPASIANLSTTLTSLFLGQNLISGTIPHDIGNLVSLQELSLETNMLSGELPVSFGKLLNLQVVDLYSNAISGEIPSYFGNMTRLQKLHLNSNSFHGRIPQSLGRCRYLLDLWMDTNRLNGTIPQEILQIPSLAYIDLSNNFLTGHFPEEVGKLELLVGLGASYNKLSGKMPQAIGGCLSMEFLFMQGNSFDGAIPDISRLVSLKNVDFSNNNLSGRIPRYLASLPSLRNLNLSMNKFEGRVPTTGVFRNATAVSVFGNTNICGGVREMQLKPCIVQASPRKRKPLSVRKKVVSGICIGIASLLLIIIVASLCWFMKRKKKNNASDGNPSDSTTLGMFHEKVSYEELHSATSRFSSTNLIGSGNFGNVFKGLLGPENKLVAVKVLNLLKHGATKSFMAECETFKGIRHRNLVKLITVCSSLDSEGNDFRALVYEFMPKGSLDMWLQLEDLERVNDHSRSLTPAEKLNIAIDVASALEYLHVHCHDPVAHCDIKPSNILLDDDLTAHVSDFGLAQLLYKYDRESFLNQFSSAGVRGTIGYAAPEYGMGGQPSIQGDVYSFGILLLEMFSGKKPTDESFAGDYNLHSYTKSILSGCTSSGGSNAIDEGLRLVLQVGIKCSEEYPRDRMRTDEAVRELISIRSKFFSSKTTITESPRDAPQSSPQEWMLNTDMHTM
# What was measured:
# [1] = tested on: RetOx, CYP81F2 and PAD3 transcripts; assay: Elicitor-induced accumulation of Ret-Ox, CYP81F2 and PAD3 transcripts, semi-quantitative PCR; assay type: cell-based, Arabidopsis thaliana; details: flg22 1 μM, 30 minutes, stably transformed Ws-0 plants
# Method: B) Elicitor induced accumulation of Ret-Ox, CYP81F2 and PAD3 transcripts analysed by semi-quantitative PCR, using the UBQ5 gene for normalization. Leaves were incubated with water, flg22 (1 μM), elfl8 (10 μM) or a generic peptide (10 μM) for 30 minutes. The experiment was repeated three times with similar results. The same experiment was performed in a second independent transgenic line expressing eJMC with similar results.
# (§1) 3,3′-diaminobenzidine (DAB) staining, callose deposition and gene resistance analysis were assayed as described (Galletti et al., 2008). For measuring active oxygen species released by tobacco agroinfiltrated plants after elicitor treatment, the authors used a modified luminol-dependent assay (Gomez et al., 1999). Slices, corresponding to approximately 30 mg fresh weight, were transferred to assay tubes containing 1 μM flg22 or 10 μM elfl8 in aqueous solution supplied with 40 μM luminol (SIGMA). Chemo-luminescence was measured in a liquid scintillation counter (LS-6500, Beckman) after 5 and 15 min upon addition of elicitors.
# (§2) Fluorescent eJMC and FLS2 were also stably expressed in transgenic Arabidopsis ecotype Wassilewskija (Ws-0), which carries EFR but lacks a flg22 perception system (Gomez-Gomez et al., 1999, Bauer et al., 2001). Transformed T1 plants expressing the proteins, named eJMC plants and FLS2 plants, respectively, were selected by confocal microscopy analysis of adult rosette leaves. […] Fluorescence was detected only in adult rosette leaves, likely due to a low expression level of the receptor at the different developmental stages.
# [2] = tested on: transgenic Arabidopsis Ws-0 seedlings; assay: Seedling growth inhibition by flg22 in transgenic Ws-0; assay type: in vivo, Arabidopsis thaliana; details: data not shown
# From the text: as §2
# [3] = tested on: oxidative burst in tobacco leaves; assay: Oxidative burst, luminol-dependent photon counting in agroinfiltrated tobacco leaf slices; assay type: cell-based, Nicotiana tabacum; details: 10 μM elfl8, after 15 min
# Method: D) Oxidative burst in tobacco leaves transiently expressing eJMC, EFR and EWAK. Photon counting was realized using tobacco leaves slices in a solution of luminol and peroxidase, during treatment with 10 μM elfl8. eJMC- and EFR-expressing explants were used as a negative and a positive control, respectively. Experiment was repeated at least 6 times on two independent replicated.
# (C) Oxidative burst in agroinfiltrated tobacco leaves expressing EWAK. Leaves expressing eJMC and EFR were used as a negative and a positive control, respectively. The burst was measured by photon counting using leaf slices incubated in a solution containing 10 μM elfl8, luminol and peroxidase. The experiment was repeated at least 6 times with two independent replicates.
# as §1
# [4] = tested on: transgenic Arabidopsis leaves; assay: Constitutive activation of defense responses (H2O2, callose) in transgenic plants; assay type: cell-based, Arabidopsis thaliana; details: no elicitor
# Method: Leaves were stained with 3,3′-diaminobenzidine (DAB) for H2O2 visualization (upper panel) and with aniline blue for callose visualization (lower panel).
# as §1
# [5] = tested on: At3g22270 and At4g37640 transcripts; assay: Elicitor-induced At3g22270 and At4g37640 expression, semi-quantitative PCR, Arabidopsis Col-0 / Col-0 efr; assay type: cell-based, Arabidopsis thaliana; details: transgenic Col-0 efr plants
# Method: (A) Induction of ethylene biosynthesis in agroinfiltrated tobacco explants expressing EFR, WAK1, WEG and EWAK. […] Agroinfiltrated leaf tissues expressing EFR or WEG and elicited with OGs or elfl8 respectively, represented our negative control. Values are means±s.e.m. (N=3). (B) Elicitor-induced gene expression in untransformed Col-0 and Col-0 efr plants, and in transgenic Arabidopsis Col-0 efr plants stably expressing WEG. Accumulation of At3g22270 and At4g37640 transcripts was analysed by semi-quantitative PCR, using the UBQ5 gene for normalization. Adult leaves were syringe-infiltrated with water, OGs (25 μg/ml) or elfl8 (10 μM) for 3 h. The experiment was repeated three times with similar results. The same experiment was performed in a second independent transgenic line expressing WEG with similar results.
# The ability of WEG to activate downstream responses upon stimulation with OGs was analysed in agroinfiltrated tobacco.
# [6] = tested on: B. cinerea; assay: Lesion development in Arabidopsis plants inoculated with B. cinerea; assay type: in vivo; details: transgenic Arabidopsis vs Col-0 or Col-0 efr, 48 h post-inoculation
# Method: (A) Growth of A. tumefaciens in N. tabacum tissues transiently expressing receptor proteins. Tobacco leaves were infiltrated with Agrobacterium carrying the indicated receptor constructs and the number of Agrobacterium colony-forming units (c.f.u.) in the tissues was analyzed immediately after infiltration (white bars) and after 24 h (gray bars). EFR and eJMC were used as positive and negative controls, respectively. For each receptor, three samples were analyzed in five independent experiments. Asterisks indicate statistically significant differences against control (Col-0 for WAK1 plants and Col-0 efr for WEG and EWAK plants). (B) Lesion development in Arabidopsis wild type (Col-0) and mutant Col-0 efr plants and in transgenic plants expressing WAK1, WEG and EWAK plants inoculated with B. cinerea at 48 h post-inoculation. Values are means±s.e.m. of at least 16 lesions. The same experiment was performed in a second independent transgenic line expressing WAK1 with similar results. Asterisks indicate statistically significant differences against control (Col-0 for WAK1 plants and Col-0 efr for WEG and EWAK plants).
# [7] = tested on: Pectobacterium carotovorum subsp. carotovorum; assay: Infection assay with Pectobacterium carotovorum on transgenic Arabidopsis leaves; assay type: in vivo; details: transgenic Arabidopsis vs Col-0 or Col-0 efr, 24 h, 5×10^7 CFU/ml
# Method: Inoculum concentration was 5×10^7 CFU/ml). Values are means±SE of at least 16 lesions. Asterisks indicate statistically significant differences against control plants (Col-0 or Col-0 efr), according to Student's t test (*, p<0.0005).
# Agrobacterium tumefaciens GV3101 strain infections was performed as described in Katagiri et al., (2002) and using a concentration of Agrobacterium corresponding at an OD600 of 1.0 in 10 mM MgCl2 and 600 μM acetosyringone. After 24 h of infiltration, serial dilution of Agrobacterium colonies were deposited on LB agar supplemented with gentamycin and rifampicin and grown for 2-3 days at 28° C. in the dark. At least 5 independent plants and 3 different leaves by plant, were used per experiment. Pectobacterium carotovorum subsp. carotovorum infections Pectobacterium carotovorum subsp. carotovorum (formely Erwinia carotovora; Gardan et al., 2003) (strain DMSZ 30169) was obtained from DSMZ GmbH (Germany). A liquid colture using 10 ml LB medium was prepared. […]
# For infection, fully developed leaves of 4 week old Arabidopsis plants were detached and placed in 0.8% agar Petri dishes. […] Symptoms were scored measuring the area of macerated tissue after 24 hour post inoculation at 22° C. and 12 h photoperiod. Area was measured by ImageJ software. […]
molecule,measurement,setting,value
FLS2 [reference compound],"expression of RetOx, CYP81F2 and PAD3 induced by flg22",[1],induced
same,growth inhibition of transgenic seedlings treated with flg22,[2],did not show growth inhibition
"eJMC: chimera (Arg806FLS2-Val650EFR): LRR and eJM domains of FLS2 fused upstream of TM, iJM and kinase domains of EFR, GFP-fused","expression of RetOx, CYP81F2 and PAD3 induced by flg22",[1],induced
same,oxidative burst upon treatment with elfl8,[3],not
same,oxidative burst upon treatment with elfl8,[3]; listed as eJM,did not show any significant response
same,growth inhibition of transgenic seedlings treated with flg22,[2],did not show growth inhibition
B1,"constitutive activation of defense responses (H2O2 levels, callose deposits)",[4],do not show constitutive activation of defense responses
same,induction of At3g22270 and At4g37640 by other elicitors,[5]; 3 h,not by other elicitors
same,induction of At3g22270 and At4g37640 by OGs,"[5]; OGs 25 μg/ml, 3 h",induced by OGs
same,constitutive activation of At3g22270 and At4g37640 expression,[5]; water controls,No constitutive activation
same,resistance to B. cinerea infection,[6],increased resistance; also recorded: confers resistance
same,resistance to Pectobacterium carotovorum subsp. carotovorum,[7],increased resistance; also recorded: confers resistance
B2,oxidative burst upon treatment with elfl8,[3],produced an oxidative burst; also recorded: robust oxidative burst
